Source: US20050042607A1, “Parkin protein as ubiquitin ligase” (priority 2000, published 2005)
“Also recorded” adds a separate entry of the source.

T1: Ubc3 (Homo sapiens, UniProt P49427)
T1 construct: expressed in transfected cells; host or cells: HEK293
T1 sequence (P49427 1-236): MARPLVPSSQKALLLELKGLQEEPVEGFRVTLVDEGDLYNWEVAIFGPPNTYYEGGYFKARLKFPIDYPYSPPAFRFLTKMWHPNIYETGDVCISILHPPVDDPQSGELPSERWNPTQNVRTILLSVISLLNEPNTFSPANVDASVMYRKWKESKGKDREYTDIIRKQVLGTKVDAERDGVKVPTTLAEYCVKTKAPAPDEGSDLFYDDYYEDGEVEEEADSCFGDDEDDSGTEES


Key:
UbcH7 = target: T2, UbcH7 (Homo sapiens, UniProt P68036); test: Co-immunoprecipitation of Myc-Parkin with FLAG-UbcH7 expressed in HEK293 cells; type: binding; conditions: 48 hours after transfection, IP with antiMyc antibody
T2 construct: expressed in transfected cells; host or cells: HEK293
Description: (§1) For preparing pcDNA3.1(+)Myc and pcDNA3.1(+)FLAG vectors, oligo DNA encoding N-terminal Myc and FLAG epitopes was ligated at KpnI/BamHI domain of pcDNA3.1(+) (Invitrogen). After the amplification of wild type parkin or N-terminal-deficient variant, Ubc2(HHR6B), UbcH8 and cDNA of ubiquitin with a suitable primer, they were ligated in BamHI domain of the vector. The C-terminal-deficient variant and missense variant of parkin were prepared by introducing a variation into pcDNA3.1(+)Myc-Parkin by using a Quik Change domain specific variation inducing kit (Stratagene) according to a manual. pCAGGS-Ubc3 was already reported [Iwai K. et al., Proc. Natl. Acad. Sci. USA 96, 12436-12441 (1999)].
(§2) pCGN-Ubc4 and other pcDNA3.1(+)FLAG-Ubc were prepared from human liver cDNA library by an ordinary method. Ubc used was obtained from human beings in all the cases. Human fetal kidney 293 (HEK293) cells and human dopamigenergic neuroblastoma SH-SY5Y cells were cultured in DMEM containing 10% bovine fetal serum, 10 μg/ml streptomycin and 100 U/ml penicillin.
The transfection was carried out by using FuGENE6 transfection reagent according to the producer (Boehringer-Mannheim)'s manual. […]
(§3) The following test was conducted to find whether Parkin concerns the ubiquitin pathway or not. To find whether the interaction between Parkin and each of various E2 enzymes occurs or not, Myc-labeled parkin was expressed together with various E2 enzymes labeled with FLAG, HA or His at different domains in HEK293 cells, and the interaction of them was detected by the immunoprecipitation The results are shown in FIG. 1.
Concretely, pcDNA3.1(+)Myc-Parkin ([…]) was transfected in HEK293 cells simultaneously with various expression vectors encoding FLAG-, His- or HA-Ubc in an amount shown in the parentheses in FIG. 1. […] The cell extracts (upper panel in FIG. 1) and immunoprecipitates (middle and lower panels in FIG. 1) were analyzed by the immunoblotting with various antibodies as shown in FIG. 1. […]

UbcH8 = target: T3, UbcH8 (Homo sapiens, UniProt O14933); test: Co-immunoprecipitation of Myc-Parkin with UbcH8 expressed in HEK293 cells; type: binding; conditions: 48 hours after transfection, IP with antiMyc antibody
T3 construct: expressed in transfected cells; host or cells: HEK293
Description: as §1
(§4) pCGN-Ubc4 and other pcDNA3.1(+)FLAG-Ubc were prepared from human liver cDNA library by an ordinary method. Ubc used was obtained from human beings in all the cases. […]
as §3, with “1. […]” for “1.”

Ubc2 = target: T4, Ubc2 (Homo sapiens, UniProt P63146); test: Co-immunoprecipitation of Myc-Parkin with Ubc2 expressed in HEK293 cells; type: binding; conditions: IP with antiMyc antibody
T4 construct: expressed in transfected cells; host or cells: HEK293
Description: as §1, §4
as §3, with “1. […]” for “1.”

Ubc3 = target: T1, Ubc3; test: Co-immunoprecipitation of Myc-Parkin with Ubc3 expressed in HEK293 cells; type: binding; conditions: IP with antiMyc antibody
Description: as §1, §4
as §3, with “1. […]” for “1.”

Ubc4 = test: Co-immunoprecipitation of Myc-Parkin with Ubc4 expressed in HEK293 cells; type: binding, human; conditions: IP with antiMyc antibody
Description: as §1, §4
as §3, with “1. […]” for “1.”

UbcH5A-C = test: Co-immunoprecipitation of Myc-Parkin with UbcH5A-C expressed in HEK293 cells; type: binding, human; conditions: IP with antiMyc antibody
Description: as §1, §4
as §3, with “1. […]” for “1.”

UbcH6 = target: T5, UbcH6 (Homo sapiens, UniProt P51965); test: Co-immunoprecipitation of Myc-Parkin with UbcH6 expressed in HEK293 cells; type: binding; conditions: IP with antiMyc antibody
T5 construct: expressed in transfected cells; host or cells: HEK293
Description: as §1, §4
as §3, with “1. […]” for “1.”

[1] = test system: human dopamigenergic neuroblastoma SH-SY5Y cells; test: Association of FLAG-ubiquitinated cell protein with Myc-Parkin in SH-SY5Y cells (antiMyc immunoprecipitation, antiFLAG immunoblotting); type: cell-based
Description: as §1, §2
(§5) The transfection was carried out by using FuGENE6 transfection reagent according to the producer (Boehringer-Mannheim)'s manual. The cells were treated with MG132 (Cbz-Leu-Leu-Leu-aldehyde) (Peptide Institute, Inc., Osaka, Japan) having a final concentration of 50 μM.
(§6) The immunoprecipitation was conducted with rabbit polyclonal antiMyc antibodies (A-14) (Santa Cruz Biotechnology) as previously reported [Suzuki H. et al., Biochem. Biophys. Res. Commun. 256, 127-132 (1999)]. The immunoblotting was conducted with biotin linked mouse monoclonal antiFLAG(M2) antibody (SIGMA), mouse monoclonal antiMyc antibody (9E10) (Santa Cruz Biotechnology), mouse monoclonal antiHA antibody (HA.11) (Berkeley Antibody Company) or mouse monoclonal antiHis antibody (RGS.His) (QIAGEN). Streptoavidin/horseradish peroxidase complex (Amersham Pharmacia Biotech) was used for detecting biotin-linked antiFLAG(M2) antibody.
(§7) At first, 10 μg of pcDNA3.1(+)Myc-parkin and 10 μg of pcDNA3.1(+)FLAG-ubiquitin vector were simultaneously transfected into SH-SY5Y cells. […]

HEK293 fetal kidney cell = test: Association of FLAG-ubiquitinated cell protein with Myc-Parkin in HEK293 cells; type: cell-based, human; conditions: HEK293 fetal kidney cell extract, same analysis as in SH-SY5Y
Description: as §2, §5, §6, §7

[2] = SH-SY5Y cells treated with proteasome inhibitor MG132 (50 μM)

T2 sequence (P68036 whole entry): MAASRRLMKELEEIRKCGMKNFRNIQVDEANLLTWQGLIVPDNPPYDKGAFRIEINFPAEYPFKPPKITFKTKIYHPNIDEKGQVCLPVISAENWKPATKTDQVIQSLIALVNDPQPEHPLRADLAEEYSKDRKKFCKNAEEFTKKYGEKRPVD
T3 sequence (O14933 whole entry): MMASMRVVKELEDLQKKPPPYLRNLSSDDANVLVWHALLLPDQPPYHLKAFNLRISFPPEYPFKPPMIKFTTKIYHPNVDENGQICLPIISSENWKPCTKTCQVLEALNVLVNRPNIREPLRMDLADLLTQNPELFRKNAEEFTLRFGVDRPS
T5 sequence (P51965 whole entry): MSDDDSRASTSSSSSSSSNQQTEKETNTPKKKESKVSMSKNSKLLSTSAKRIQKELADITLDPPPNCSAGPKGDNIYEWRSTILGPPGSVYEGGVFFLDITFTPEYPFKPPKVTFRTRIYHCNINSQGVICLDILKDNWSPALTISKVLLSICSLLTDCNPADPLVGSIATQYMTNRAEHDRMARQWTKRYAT
T4 sequence (P63146 whole entry): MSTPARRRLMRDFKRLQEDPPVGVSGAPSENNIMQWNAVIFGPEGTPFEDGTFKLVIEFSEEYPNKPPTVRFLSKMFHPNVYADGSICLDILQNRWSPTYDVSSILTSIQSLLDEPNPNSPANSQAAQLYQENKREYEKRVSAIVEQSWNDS

Row | association (co-immunoprecipitation) with UbcH7 (UbcH7) | association (co-immunoprecipitation) with Ubc2 (Ubc2) | association (co-immunoprecipitation) with Ubc3 (Ubc3) | association (co-immunoprecipitation) with UbcH6 (UbcH6) | Molecule | association (co-immunoprecipitation) with UbcH8 (UbcH8) | association (co-immunoprecipitation) with Ubc4 (Ubc4) | association (co-immunoprecipitation) with UbcH5A-C (UbcH5A-C) | ubiquitinated protein bands associated with Parkin [1, 2] | ubiquitinated protein bands associated with Parkin ([1]; SH-SY5Y cells, no treatment with inhibitor) | ubiquitinated protein bands associated with Parkin (HEK293 fetal kidney cell)
1 | immunoprecipitated together with Parkin | no detectable linkage | no detectable linkage | no detectable linkage | Parkin: Protein of 465 amino acids encoded by parkin, with N-terminal ubiquitin-like domain and C-terminal RING-box; used Myc-labeled (protein, UniProt O60260 1-465, looked up, Myc tag, Protein of 465 amino acids encoded by parkin, with N-terminal ubiquitin-like domain and C-terminal RING-box; used Myc-labeled) E3 ubiquitin-protein ligase …: MIVFVRFNSSHGFPVEVDSDTSIFQLKEVVAKRQGVPADQLRVIFAGKELRNDWTVQNCDLDQQSIVHIVQRPWRKGQEMNATGGDDPRNAAGGCEREPQSLTRVDLSSSVLPGDSVGLAVILHTDSRKDSPPAGSPAGRSIYNSFYVYCKGPCQRVQPGKLRVQCSTCRQATLTLTQGPSCWDDVLIPNRMSGECQSPHCPGTSAEFFFKCGAHPTSDKETSVALHLIATNSRNITCITCTDVRSPVLVFQCNSRHVICLDCFHLYCVTRLNDRQFVHDPQLGYSLPCVAGCPNSLIKELHHFRILGEEQYNRYQQYGAEECVLQMGGVLCPRPGCGAGLLPEPDQRKVTCEGGNGLGCGFAFCRECKEAYHEGECSAVFEASGTTTQAYRVDERAAEQARWEAASKETIKKTTKPCPRCHVPVEKNGGCMHMKCPQPQCRLEWCWNCGCEWNRVCMGDHWFDV | not detected under ordinary conditions; also recorded: UbcH8 immunoprecipitation was weak | no detectable linkage | no detectable linkage | ubiquitinated bands including high-molecular ubiquitinated proteins, were detected | no ubiquitinated band was found | no ubiquitinated band linked with Parkin was observed
2 | did not interact with UbcH7 |  |  |  | Parkin^T240R: Missense Parkin variant from AR-JP patient, No. 240 threonine replaced with arginine (RING1 domain) (protein, UniProt O60260 1-465, looked up, variant T240R) E3 ubiquitin-protein ligase …: MIVFVRFNSSHGFPVEVDSDTSIFQLKEVVAKRQGVPADQLRVIFAGKELRNDWTVQNCDLDQQSIVHIVQRPWRKGQEMNATGGDDPRNAAGGCEREPQSLTRVDLSSSVLPGDSVGLAVILHTDSRKDSPPAGSPAGRSIYNSFYVYCKGPCQRVQPGKLRVQCSTCRQATLTLTQGPSCWDDVLIPNRMSGECQSPHCPGTSAEFFFKCGAHPTSDKETSVALHLIATNSRNITCIRCTDVRSPVLVFQCNSRHVICLDCFHLYCVTRLNDRQFVHDPQLGYSLPCVAGCPNSLIKELHHFRILGEEQYNRYQQYGAEECVLQMGGVLCPRPGCGAGLLPEPDQRKVTCEGGNGLGCGFAFCRECKEAYHEGECSAVFEASGTTTQAYRVDERAAEQARWEAASKETIKKTTKPCPRCHVPVEKNGGCMHMKCPQPQCRLEWCWNCGCEWNRVCMGDHWFDV |  |  |  |  |  | 
3 | could be linked with UbcH7 |  |  |  | Parkin^R42P: Missense Parkin variant from AR-JP patient, No. 42 arginine replaced with proline (ubiquitin-like domain variant) (protein, UniProt O60260 1-465, looked up, variant R42P) E3 ubiquitin-protein ligase …: MIVFVRFNSSHGFPVEVDSDTSIFQLKEVVAKRQGVPADQLPVIFAGKELRNDWTVQNCDLDQQSIVHIVQRPWRKGQEMNATGGDDPRNAAGGCEREPQSLTRVDLSSSVLPGDSVGLAVILHTDSRKDSPPAGSPAGRSIYNSFYVYCKGPCQRVQPGKLRVQCSTCRQATLTLTQGPSCWDDVLIPNRMSGECQSPHCPGTSAEFFFKCGAHPTSDKETSVALHLIATNSRNITCITCTDVRSPVLVFQCNSRHVICLDCFHLYCVTRLNDRQFVHDPQLGYSLPCVAGCPNSLIKELHHFRILGEEQYNRYQQYGAEECVLQMGGVLCPRPGCGAGLLPEPDQRKVTCEGGNGLGCGFAFCRECKEAYHEGECSAVFEASGTTTQAYRVDERAAEQARWEAASKETIKKTTKPCPRCHVPVEKNGGCMHMKCPQPQCRLEWCWNCGCEWNRVCMGDHWFDV |  |  |  | substantially completely lost the association with the ubiquitinated protein |  | 
